{
  "source": "patent US20190330638A1",
  "about": "(MAYO FOUNDATION FOR MEDICAL EDUCATION AND RESEARCH, published 2019)",
  "biological_target": "T1, Ubiquitin-H4 fusion construct (UniProt P0CG48 1-76; P62805 1-103, limits assumed)",
  "T1 construct": "Linear fusion used as control bait for pull-down/mass spectrometry; a single ubiquitin unit is meant; also called Ub-H4; Ubquitin-H4",
  "test": "pull-down with fusion construct, mass spectrometry",
  "protocol": "A search for potential histone H4 ufmylation readers was performed. […] Next, an immunopreciptation assay was performed with STK38 antibody.",
  "data": [
    {"binder": "serine/threonine kinase 38 (STK38) (enzyme, Endogenous protein from cell lysates (pull-down/mass spectrometry, immunoprecipitation with STK38 antibody); also called NDR1) not shown", "values": [
      {"measurement": "binding result", "value": "no binding"}
    ]}
  ]
}
